According to publication PMC7822592, “The half-life of the bone-derived hormone osteocalcin is regulated through O-glycosylation in mice, but not in humans” (eLife, 2020):
No end group written: not given here. O‑glycan = not defined here

What was measured:
[1] = test system: INS-1 832/3 cells; test: Ins1 gene expression in INS-1 832/3 cells treated with ucOCN; assay type: cell-based, rat; settings: 8 hr, qPCR
Procedure: The INS-1 832/3 rat insulinoma cell line (Millipore-Sigma) was cultured in RPMI-1640 with 11.1 mM D-glucose, supplemented with 2 mM L-glutamine, 1 mM sodium pyruvate, 10 mM HEPES, 0.05 mM β-mercaptoethanol and 10% FBS ([Hohmeier et al., 2000]). On day 1, cells were plated at 3 × 10^5 cells per well in 12-well plates and on day 5, cells were washed with PBS and incubated with culture media containing 5 mM D-glucose. Twenty-four hours later, cells were washed with PBS and incubated for 4 hr in culture media containing 1% FBS, 5 mM D-glucose and 0.1% BSA. OCN was added for 8 hr before supernatants and cells were harvested. ucOCN and O-gly ucOCN concentration were measured in supernatants by ELISA and cells were lyzed and RNA extracted as described in the material and methods section. Gene expression was analyzed using rat specific primers for Ins1 and Gapdh.

[2] = Ex vivo half-life of mouse OCN in plasma; assay type: in vitro ADME; settings: 100 ng/ml; for % OCN from initial: Bglap-/- mouse plasma
Procedure: The mouse OCN ex vivo half-life assays were performed with fresh plasma (lithium heparin) collected from four independent Bglap-/- mice. Glycosylated OCN produced in HEK293 cells and non-glycosylated OCN, produced in bacteria as previously described ([Ferron et al., 2012]), were incubated at 100 ng/ml in plasma at 37°C and OCN level was measured at indicated time points using the total mouse OCN ELISA assay described previously ([Ferron et al., 2010b]). […] The detection antibody is a goat polyclonal antibody directed against the C-terminal region (amino acids 26 to 46) of mouse OCN (anti-CTERM OCN). This assay detects with the same sensitivity glycosylated and non-glycosylated mouse OCN at concentration of 50 ng/ml or less (Figure 3—figure supplement 2). Therefore, all samples were diluted to be in this range before being measured by the ELISA. Human OCN half-life assay was performed ex vivo using Bglap-/- mice plasma and human OCN at 60 ng/ml. Human OCN level was measured at different time point using the human ucOCN ELISA described above. At the experiment start point (T0), an aliquot of plasma was diluted in ELISA assay buffer and kept on ice for OCN measurements. In some experiments, plasma was heat-inactivated for 30 min at 56°C, or treated with EDTA (10 mM, Wisent), phenylmethylsulfonyl fluoride (PMSF, 10 mM, Sigma), pepstatin A (Pep A, 10 μM, Sigma) which inhibits aspartic proteases (pepsin, cathepsin D, renin, chymosin), RVKR (Dec-RVKR-CMK, 50 μM; Tocris) or talabostat (10 mM; Tocris). Results are calculated in percentage relative to the initial concentration of non-glycosylated and glycosylated OCN respectively.

O-gly ucOCN: O-glycosylated uncarboxylated mouse osteocalcin produced and purified from HEK293 as Fc fusion, released by thrombin (YLGASVPS(O‑glycan)PDPLEPTREQCELNPACDELSDQYGLKTAYKRIYGITI; ends and bridges not checked; also: O-glycosylated (HexNAc, Hex, NANA); UniProt P86546 50-95, looked up)
Ins1 gene expression (Fold change relative to vehicle) ([1]; 0.1 ng/mL, replicate 1): 2.4 Fold change | Ins1 gene expression (Fold change relative to vehicle) ([1]; 0.1 ng/mL, replicate 2): 1.6 Fold change | Ins1 gene expression (Fold change relative to vehicle) ([1]; 0.1 ng/mL, replicate 3): 2.2 Fold change | Ins1 gene expression (Fold change relative to vehicle) ([1]; 0.1 ng/mL, replicate 4): 2.6 Fold change | Ins1 gene expression (Fold change relative to vehicle) ([1]; 0.1 ng/mL, replicate 5): 3.1 Fold change | Ins1 gene expression (Fold change relative to vehicle) ([1]; 0.1 ng/mL, replicate 6): 3.0 Fold change | Ins1 gene expression (Fold change relative to vehicle) ([1]; 0.1 ng/mL, replicate 7): 4.2 Fold change | Ins1 gene expression (Fold change relative to vehicle) ([1]; 0.1 ng/mL, replicate 8): 2.7 Fold change | Ins1 gene expression (Fold change relative to vehicle) ([1]; 0.3 ng/mL, replicate 1): 0.562 Fold change | Ins1 gene expression (Fold change relative to vehicle) ([1]; 0.3 ng/mL, replicate 2): 1.1 Fold change | Ins1 gene expression (Fold change relative to vehicle) ([1]; 0.3 ng/mL, replicate 3): 1.1 Fold change | Ins1 gene expression (Fold change relative to vehicle) ([1]; 0.3 ng/mL, replicate 4): 12.1 Fold change | Ins1 gene expression (Fold change relative to vehicle) ([1]; 0.3 ng/mL, replicate 5): 2.0 Fold change | Ins1 gene expression (Fold change relative to vehicle) ([1]; 0.3 ng/mL, replicate 6): 8.6 Fold change | Ins1 gene expression (Fold change relative to vehicle) ([1]; 0.3 ng/mL, replicate 7): 2.7 Fold change | Ins1 gene expression (Fold change relative to vehicle) ([1]; 0.3 ng/mL, replicate 8): 4.9 Fold change | Ins1 gene expression (Fold change relative to vehicle) ([1]; 0.3 ng/mL, replicate 9): 2.3 Fold change | Ins1 gene expression (Fold change relative to vehicle) ([1]; 0.3 ng/mL, replicate 10): 0.7 Fold change | % OCN from initial ([2]; 37°C, 0 min, ELISA, replicate 1): 100.0% | % OCN from initial ([2]; 37°C, 0 min, ELISA, replicate 2): 100.0% | % OCN from initial ([2]; 37°C, 0 min, ELISA, replicate 3): 100.0% | % OCN from initial ([2]; 37°C, 0 min, ELISA, replicate 4): 100.0% | % OCN from initial ([2]; 37°C, 0 min, ELISA, replicate 5): 100.0% | % OCN from initial ([2]; 37°C, 15 min, ELISA, replicate 1): 104.1% | % OCN from initial ([2]; 37°C, 15 min, ELISA, replicate 2): 103.7% | % OCN from initial ([2]; 37°C, 15 min, ELISA, replicate 3): 102.4% | % OCN from initial ([2]; 37°C, 15 min, ELISA, replicate 4): 105.4% | % OCN from initial ([2]; 37°C, 15 min, ELISA, replicate 5): 92.4% | % OCN from initial ([2]; 37°C, 30 min, ELISA, replicate 1): 101.9% | % OCN from initial ([2]; 37°C, 30 min, ELISA, replicate 2): 103.9% | % OCN from initial ([2]; 37°C, 30 min, ELISA, replicate 3): 104.6% | % OCN from initial ([2]; 37°C, 30 min, ELISA, replicate 4): 102.8% | % OCN from initial ([2]; 37°C, 30 min, ELISA, replicate 5): 91.2% | % OCN from initial ([2]; 37°C, 60 min, ELISA, replicate 1): 103.5% | % OCN from initial ([2]; 37°C, 60 min, ELISA, replicate 2): 108.3% | % OCN from initial ([2]; 37°C, 60 min, ELISA, replicate 3): 103.5% | % OCN from initial ([2]; 37°C, 60 min, ELISA, replicate 4): 102.6% | % OCN from initial ([2]; 37°C, 60 min, ELISA, replicate 5): 95.6% | % OCN from initial ([2]; 37°C, 90 min, ELISA, replicate 1): 108.4% | % OCN from initial ([2]; 37°C, 90 min, ELISA, replicate 2): 106.6% | % OCN from initial ([2]; 37°C, 90 min, ELISA, replicate 3): 107.8% | % OCN from initial ([2]; 37°C, 90 min, ELISA, replicate 4): 102.6% | % OCN from initial ([2]; 37°C, 90 min, ELISA, replicate 5): 92.9% | % OCN from initial ([2]; 37°C, 120 min, ELISA, replicate 1): 105.8% | % OCN from initial ([2]; 37°C, 120 min, ELISA, replicate 2): 103.2% | % OCN from initial ([2]; 37°C, 120 min, ELISA, replicate 3): 106.0% | % OCN from initial ([2]; 37°C, 120 min, ELISA, replicate 4): 107.0% | % OCN from initial ([2]; 37°C, 120 min, ELISA, replicate 5): 90.1% | % OCN from initial ([2]; 37°C, 180 min, ELISA, replicate 1): 106.8% | % OCN from initial ([2]; 37°C, 180 min, ELISA, replicate 2): 107.9% | % OCN from initial ([2]; 37°C, 180 min, ELISA, replicate 3): 107.4% | % OCN from initial ([2]; 37°C, 180 min, ELISA, replicate 4): 119.0% | % OCN from initial ([2]; 37°C, 180 min, ELISA, replicate 5): 78.8% | % OCN from initial ([2]; 37°C, 300 min, ELISA, replicate 1): 106.5% | % OCN from initial ([2]; 37°C, 300 min, ELISA, replicate 2): 103.5% | % OCN from initial ([2]; 37°C, 300 min, ELISA, replicate 3): 104.6% | % OCN from initial ([2]; 37°C, 300 min, ELISA, replicate 4): 102.2% | % OCN from initial ([2]; 37°C, 300 min, ELISA, replicate 5): 88.0% | % OCN from initial ([2]; Figure 3D, 2hrs, 37°C, Not HI, ELISA, replicate 1): 100.8% | % OCN from initial ([2]; Figure 3D, 2hrs, 37°C, Not HI, ELISA, replicate 2): 92.4% | % OCN from initial ([2]; Figure 3D, 2hrs, 37°C, Not HI, ELISA, replicate 3): 106.8% | % OCN from initial ([2]; Figure 3D, T0, ELISA, replicate 1): 101.5% | % OCN from initial ([2]; Figure 3D, T0, ELISA, replicate 2): 94.9% | % OCN from initial ([2]; Figure 3D, T0, ELISA, replicate 3): 103.6% | % OCN from initial ([2]; Figure 3 supplement 3A, 37°C, T=2hours, replicate 1): 90.8% | % OCN from initial ([2]; Figure 3 supplement 3A, 37°C, T=2hours, replicate 2): 95.5% | % OCN from initial ([2]; Figure 3 supplement 3A, 37°C, T=2hours, replicate 3): 95.0% | % OCN from initial ([2]; Figure 3 supplement 3A, T0, replicate 1): 105.0% | % OCN from initial ([2]; Figure 3 supplement 3A, T0, replicate 2): 101.3% | % OCN from initial ([2]; Figure 3 supplement 3A, T0, replicate 3): 93.7% | stable in plasma for ([2]; fresh Bglap-/- mouse plasma (lithium heparin), 37°C, total mouse OCN ELISA, n = 4 plasma): more than 5 hr
